Measured values: publication PMC9929924, “Phosphorylation of the receptor protein Pex5p modulates import of proteins into peroxisomes” (Biological Chemistry, 2022)
Substitutions are numbered along the chain they refer to. Ends that are not written are not given here. * marks the point of attachment. FITC = O=C1OC2(c3ccc(O)cc3Oc3cc(O)ccc32)c2ccc(NC(=S)*)cc21

Key:
yeast peroxisomes = conditions: under both glucose and oleate condition; ref Rosenthal et al. 2020; cited from earlier work
Source text: We classified PTS1-proteins into three different categories according to the observed import phenotypes. […] In contrast, peroxisomal NADP-dependent isocitrate dehydrogenase (Idp3p; Figure 4C) and malate synthase 1 (Mls1p; Figure 4D) belong to category 2 characterized by no peroxisomal import (Supplementary Fi ...

Pex5p^2D cells = experiment: Fluorescence microscopy, peroxisomal import of GFP-tagged proteins in Pex5p^2D-expressing cells; type: cell-based, S. cerevisiae; set-up: key to import phenotype category: showed a reduced peroxisomal import and constitute category 1; category 2 characterized by no peroxisomal import; without a noticeable effect on import in Pex5p^2D cells (category 3); conditions: GFP-tagged protein, Pex5p^2D-expressing cells; Pex3p-mCherry marker; SD medium, 2% glucose; assessed manually
Source text: Query strains were constructed on the basis of an automated mating compatible strain. The query strains contained a peroxisomal marker (Pex3p-mCherry::HIS), a deletion of PEX5 (pex5Δ::NAT) and a plasmid expressing WT or mutant PEX5 (PEX5^WT, PEX5^2D or PEX5^2A). Using an automated mating method ([Cohen and Schuldiner 2011]; [Tong and Boone 2006]), the query strains were crossed with a NOP1pr-N′-GFP-peroxi library ([Dahan et al. 2017]). The NOP1pr-N′-GFP-peroxisomal library is a collection of ∼90 strains containing all the known peroxisomal proteins together with potential peroxisomal proteins and controls, genomically tagged with GFP at their N-terminus and expressed under the generic constitutive SpNOP1 promoter. To perform the manipulations in high-density format we used a RoToR bench top colony arrayer (Singer Instruments). In short: mating was performed on rich medium plates, and selection for diploid cells was performed on SD(MSG)-HIS-URA plates containing Geneticin (200 μg ml^−1) and Nourseothricin (200 μg ml^−1). Sporulation was induced by transferring cells to nitrogen starvation media plates for 7 days. Haploid cells containing the desired mutations were selected by transferring cells to SD-URA-HIS-LYS-ARG-LEU plates containing Geneticin and Nourseothricin (same concentrations as above), alongside the toxic amino acid derivatives Canavanine and Thialysine (Sigma-Aldrich) to select against remaining diploids and select for spores with an α mating type. A similar method was used to generate control, pex5Δ, and pex8Δ strains expressing GFP-Mdh3p (Supplementary Figure 4D), in which the query strain contained a peroxisomal marker (Pex3p-mCherry::NAT) and URA3::GFP-Mdh3p. This query strain was crossed with three strains from the mini peroxisomal deletion library ([Gabay-Maskit et al. 2020]): a control (no deletion), pex5Δ, and pex8Δ strain, all of which contain KAN (Geneticin) resistance.
The yeast collections were visualized using an automated microscopy setup as described previously ([Breker et al. 2013]). In short: cells were transferred from agar plates into 384-well polystyrene plates (Greiner) for growth in liquid media using the RoToR arrayer robot. Liquid cultures were grown in a LiCONiC incubator, overnight at 30 °C in SD-URA-HIS medium. A JANUS liquid handler (PerkinElmer) connected to the incubator was used to dilute the strains to an OD600 of ∼0.2 into plates containing SD medium (6.7 g l^−1 yeast nitrogen base and 2% glucose) supplemented with complete amino acids. Plates were incubated at 30 °C for 4 h. The cultures in the plates were then transferred by the liquid handler into glass-bottom 384-well microscope plates (Matrical Bioscience) coated with Concanavalin A (Sigma-Aldrich). After 20 min, cells were washed three times with SD-Riboflavin complete medium to remove non-adherent cells and to obtain a cell monolayer. The plates were then transferred to the ScanR automated inverted fluorescent microscope system (Olympus) using a robotic swap arm (Hamilton). Images of cells in the 384-well plates were recorded in the same liquid as the washing step at 24 °C using a 60× air lens (NA 0.9) and with an ORCA-ER charge-coupled device camera (Hamamatsu). Images were acquired in two channels: GFP (excitation filter 490/20 nm, emission filter 535/50 nm) and mCherry (excitation filter 572/35 nm, emission filter 632/60 nm). All images were taken at a single focal plane. The same protocol was used to visualize fluorescence signals in GFP-Mdh3p-expressing control, pex5Δ, and pex8Δ strains (Supplementary Figure 4D).

pex8Δ cells = conditions: ref Rehling et al. 2000; cited from earlier work
Source text: Among the proteins with reduced peroxisomal import in Pex5p^2D cells (category 1) is Pex8p, an essential component of the import machinery for peroxisomal matrix proteins and required for the biogenesis of functional peroxisomes ([Agne et al. 2003]; [Rehling et al. 2000]), which may raise the question if the reduced import of most PTS1 proteins in Pex5p^2D cells is a consequence of decreased peroxisomal Pex8p levels.

[1] = molecular target: T1, Pex5p wildtype, recombinant His6-tagged (HisPex5p) (S. cerevisiae, UniProt P35056 1-612); experiment: fluorescence polarisation; fluorescence anisotropy; 10 nM FITC-labelled peptide, serial dilutions of Pex5p variant 1.5 nM to 6.6 µM; 50 mM HEPES pH 7.5, 150 mM NaCl; one-site binding-saturation fit; conditions: both partners purified
T1 construct: Pex5p, PTS1 receptor of Saccharomyces cerevisiae, UniProtKB P35056, full length; No cleavage of the His tag is described; the native MS mass of the monomer is printed as 71.459 kDa; also called Pex5p^WT; source: E. coli BL21 RIL (DE3), purified (Ni-NTA, MonoQ anion exchange, SEC)
T1 sequence (looked up): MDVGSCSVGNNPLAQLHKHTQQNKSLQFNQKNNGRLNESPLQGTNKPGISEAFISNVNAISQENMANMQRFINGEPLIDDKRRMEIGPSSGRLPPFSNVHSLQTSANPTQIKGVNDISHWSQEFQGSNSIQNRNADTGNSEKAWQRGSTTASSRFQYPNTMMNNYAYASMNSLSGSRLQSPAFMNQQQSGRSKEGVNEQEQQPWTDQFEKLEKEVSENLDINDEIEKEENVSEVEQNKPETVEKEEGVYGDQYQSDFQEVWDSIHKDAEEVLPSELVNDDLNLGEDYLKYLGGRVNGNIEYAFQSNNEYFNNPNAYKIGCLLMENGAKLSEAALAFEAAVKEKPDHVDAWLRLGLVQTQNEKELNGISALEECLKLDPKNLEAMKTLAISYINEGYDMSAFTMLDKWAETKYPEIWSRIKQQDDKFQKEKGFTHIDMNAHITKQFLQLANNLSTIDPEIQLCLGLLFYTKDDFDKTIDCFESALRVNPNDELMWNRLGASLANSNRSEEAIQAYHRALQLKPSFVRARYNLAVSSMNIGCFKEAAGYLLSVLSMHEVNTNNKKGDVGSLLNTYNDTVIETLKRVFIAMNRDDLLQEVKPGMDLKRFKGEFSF

[2] = molecular target: T2, Pex5p-S507/523D, recombinant His6-tagged phospho-mimicking mutant (S. cerevisiae, UniProt P35056 1-612, S507D | S523D); experiment: as above; conditions: both partners purified
T2 construct: Pex5p, PTS1 receptor of Saccharomyces cerevisiae, UniProtKB P35056, full length, with S507D and S523D; No cleavage of the His tag is described; the native MS mass of the monomer is printed as 71.515 kDa; also called Pex5p^2D; Pex5p-S507D/523D; source: E. coli BL21 RIL (DE3), purified (Ni-NTA, MonoQ anion exchange, SEC)
T2 sequence (looked up): T1 sequence (looked up) with S507D, S523D

Lys1p: saccharopine dehydrogenase ({FITC}-YARVKRSSRL)
targeting priority to peroxisomes (yeast peroxisomes): high targeting priority
import phenotype category (Pex5p^2D cells): category 3

Cat2p: carnitine acetyl-CoA transferase ({FITC}-YNENKRKAKL)
targeting priority to peroxisomes (yeast peroxisomes): high targeting priority
import phenotype category (Pex5p^2D cells): category 3

Pcs60p: peroxisomal oxalyl-CoA synthetase, PTS1-protein
subcellular distribution (pex8Δ cells): mislocalization
import phenotype category (Pex5p^2D cells): category 1

B1: Cta1p: protein mislocalized to the cytosol in pex8Δ cells in a previous study (protein, UniProt P15202 2-515, looked up)
Peroxisomal catalase A: SKLGQEKNEVNYSDVREDRVVTNSTGNPINEPFVTQRIGEHGPLLLQDYNLIDSLAHFNRENIPQRNPHAHGSGAFGYFEVTDDITDICGSAMFSKIGKRTKCLTRFSTVGGDKGSADTVRDPRGFATKFYTEEGNLDWVYNNTPVFFIRDPSKFPHFIHTQKRNPQTNLRDADMFWDFLTTPENQVAIHQVMILFSDRGTPANYRSMHGYSGHTYKWSNKNGDWHYVQVHIKTDQGIKNLTIEEATKIAGSNPDYCQQDLFEAIQNGNYPSWTVYIQTMTERDAKKLPFSVFDLTKVWPQGQFPLRRVGKIVLNENPLNFFAQVEQAAFAPSTTVPYQEASADPVLQARLFSYADAHRYRLGPNFHQIPVNCPYASKFFNPAIRDGPMNVNGNFGSEPTYLANDKSYTYIQQDRPIQQHQEVWNGPAIPYHWATSPGDVDFVQARNLYRVLGKQPGQQKNLAYNIGIHVEGACPQIQQRVYDMFARVDKGLSEAIKKVAEAKHASELSSNSKF
subcellular distribution (pex8Δ cells): mislocalization

B2: Mdh3p: peroxisomal malate dehydrogenase (protein, UniProt P32419 2-343, looked up)
Malate dehydrogenase, …: VKVAILGASGGVGQPLSLLLKLSPYVSELALYDIRAAEGIGKDLSHINTNSSCVGYDKDSIENTLSNAQVVLIPAGVPRKPGLTRDDLFKMNAGIVKSLVTAVGKFAPNARILVISNPVNSLVPIAVETLKKMGKFKPGNVMGVTNLDLVRAETFLVDYLMLKNPKIGQEQDKTTMHRKVTVIGGHSGETIIPIITDKSLVFQLDKQYEHFIHRVQFGGDEIVKAKQGAGSATLSMAFAGAKFAEEVLRSFHNEKPETESLSAFVYLPGLKNGKKAQQLVGDNSIEYFSLPIVLRNGSVVSIDTSVLEKLSPREEQLVNTAVKELRKNIEKGKSFILDSSKL
targeting priority to peroxisomes (yeast peroxisomes): high targeting priority
import phenotype category (Pex5p^2D cells): category 3

B3: Fox3p: 3-ketoacyl-CoA thiolase, PTS2 import pathway (protein, UniProt P27796 16-417, looked up)
3-ketoacyl-CoA thiolase, …: AMGKGESKRKNSLLEKRPEDVVIVAANRSAIGKGFKGAFKDVNTDYLLYNFLNEFIGRFPEPLRADLNLIEEVACGNVLNVGAGATEHRAACLASGIPYSTPFVALNRQCSSGLTAVNDIANKIKVGQIDIGLALGVESMTNNYKNVNPLGMISSEELQKNREAKKCLIPMGITNENVAANFKISRKDQDEFAANSYQKAYKAKNEGLFEDEILPIKLPDGSICQSDEGPRPNVTAESLSSIRPAFIKDRGTTTAGNASQVSDGVAGVLLARRSVANQLNLPVLGRYIDFQTVGVPPEIMGVGPAYAIPKVLEATGLQVQDIDIFEINEAFAAQALYCIHKLGIDLNKVNPRGGAIALGHPLGCTGARQVATILRELKKDQIGVVSMCIGTGMGAAAIFIKE
subcellular distribution (pex8Δ cells): mislocalization

B4: Cat2p nonapeptide, FITC-YNENKRKAKL (peptide)
peptide: {FITC}-YNENKRKAKL
notes: tyrosine added to the peptide amino-terminus for concentration measurements; the nine carboxy-terminal residues of Cat2p (carnitine acetyl-CoA transferase), S. cerevisiae; An extra N-terminal tyrosine stands before the natural stretch; also called Cat2p peptide; source: synthetic peptide (GenScript)
Kd [1]: 116 nM
Kd [2]: 896 nM

B5: Lys1p nonapeptide, FITC-YARVKRSSRL (peptide)
peptide: {FITC}-YARVKRSSRL
notes: tyrosine added to the peptide amino-terminus for concentration measurements; the nine carboxy-terminal residues of Lys1p (saccharopine dehydrogenase), S. cerevisiae; An extra N-terminal tyrosine stands before the natural stretch; also called Lys1p peptide; source: synthetic peptide (GenScript)
Kd [1]: 88.8 nM
Kd [2]: 3690 nM

B6: Pcs60p nonapeptide, FITC-YKSSRNKSKL (peptide)
peptide: {FITC}-YKSSRNKSKL
notes: tyrosine added to the peptide amino-terminus for concentration measurements; the nine carboxy-terminal residues of Pcs60p, S. cerevisiae; An extra N-terminal tyrosine stands before the natural stretch; also called Pcs60p peptide; source: synthetic peptide (GenScript)
Kd [1]: 643 nM
